Laboratory results: US20110150888A1 (Amgen, published 2011)

T1: human hepcidin (mature, 25 amino acids) (human, mono-biotinylated in the ELISAs and on the KinExA beads (site not stated); unlabelled in solution and on the BIAcore chip)
T1 construct: the form is named in each assay field; also called rhuHepc; rhHepc
T1 peptide: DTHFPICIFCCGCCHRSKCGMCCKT


How the values were obtained:
[1] = biological target: T1, human hepcidin (mature, 25 amino acids); test: BIAcore, recombinant human hepcidin immobilised on a CM5 chip, 50 nM antibody bound at pH 7.4, dissociation buffers of pH 7.4, 6 and 5.5 (curves not labelled by pH)
Protocol: Off-rate analysis of dissociation at different pHs was also performed. A slow off-rate is expected to predict increased binding interaction over a longer period of time, while a faster off-rate is expected to predict decreased binding interaction. For example, a faster off-rate at lower pH is expected to predict greater release of antigen at lower pH. Solution equilibrium binding analysis was performed using BIAcore to study the off-rates of antibodies 1S1, 1S3, 2.7, 18B11, 23F11 and 26F11 with recombinant human hepcidin (SEQ ID NO: 9).
Immobilization of recombinant human hepcidin (rhuHepc) to a BIAcore sensor chip surface was performed according to manufacturer's instructions at a flow rate 10 μL/min of running buffer (DPBS: Dulbecco's Phosphate Buffer Salinel X, no CaCl or MgCl, with 0.005% Biacore surfactant P-20). The carboxylated matrix of the sensor chip was first activated with a 60 μL injection of a mixture containing 0.2 M EDC(N-ethyl-N-(dimethylamine-propyl)carbodiimide in water, from BIAcore) and 0.05M NHS (N-hydroxysuccinimide in water, from Biacore). 55 μL of recombinant human hepcidin (1 μg/ml in 10 mM Na-acetate pH4.0) was injected to immobilize onto the sensor chip. The excess reactive groups of the sensor chip were deactivated with an injection of 60 μL of ethanolamine (1.0M, from Biacore).
After rhuHepc was immobilized on the CM5 chip with low density, 50 nM of antibodies 1S1, 1S3, 2.7, 18B11, 23F11 and 26F11 were injected over and bound the rhuHepc surface at pH 7.4. Dissociation buffers with pH 7.4, pH6 and pH 5.5 were run over the bound surface. The dissociation curves were obtained.

[2] = biological target: T1, human hepcidin (mature, 25 amino acids); test: KinExA solution equilibrium, human hepcidin-coated beads
Protocol: SA-Sepharose beads were pre-coated with biotinylated human hepcidin (SEQ ID NO: 9) and blocked with BSA according to manufacturer's instructions. Antibodies and hepcidin were diluted in PBS/0.1% BSA/0.05% NaN₃ buffer. Fixed concentrations of antibodies 15E1, 15E1 W52H, 15E1 A99H, 15E1 N521-1, 15E1 A107H and 18B11 were incubated with various concentrations of human hepcidin at room temperature for 8 hours before being run through the human hepcidin-coated beads. The amount of the bead-bound antibody was quantified by fluorescently (Cy5)-labeled goat anti-murine-IgG (H+L) antibody (Jackson Immuno Research, West Grove, Pa.). The binding signal is proportional to the concentration of free antibody at equilibrium. Dissociation equilibrium constant (KD) was obtained from nonlinear regression of the competition curves using a dual-curve one-site homogeneous binding model (KinExATM Pro software).

[3] = biological target: T1, human hepcidin (mature, 25 amino acids); test: ELISA, mono-biotinylated human hepcidin on Neutravidin plate, pH 6.0
Protocol: (§1) Differential pH binding of the antibodies listed above in Table 3 was then determined by ELISA. 50 μL of Neutravidin (Pierce) at 8 μg/mL in 1×PBS was coated upon a Nunc Maxisorp 384-well plate, and incubated at 37° C. for 1 hr. After blocking the wells with 0.1% BSA/PBS/0.05% Tween20 for 1 hour at room temperature, plates were washed six times with PBS/0.05% Tween20. 25 μL of mono-biotinylated hepcidin at 50 ng/mL in 0.1% BSA/PBS/0.05% Tween20 was added to the 384-well plate, and incubated at room temperature for 1 hour. The plates were next washed six times with PBS/0.05% Tween20. Starting hepcidin antibody concentrations were normalized to 1 μg/mL for pH 5.5 and 6.0 conditions and to 100 ng/mL for pH 7.4 conditions. The hepcidin antibodies were serially diluted 3-fold in PBS/1% NFDM pH 7.4 and 4-fold in PBS/1% NFDM pH 6.0 and 5.5. The dilutions and titrations were performed in polypropylene 96-well dilution plates, and then were transferred in duplicate to a Neutravidin-coated 384-well plate. The biotinylated hepcidin and antibodies were incubated for 2 hours at room temperature. The plate was next washed six times with PBS/0.05% Tween20. 25 μL it of goat anti-huIgG-horseradish peroxidase at a 1:7000 dilution in 0.1% BSA/PBS/0.05% Tween20 was next added to each well of the assay plate. The plate was finally washed six times in PBS/0.05% Tween20. Enhanced K-Blue 3,3′,5,5′-Tetramethylbenzidine (TMB) Substrate (Neogen) was added and the reaction stopped using 1 M H₃PO₄ after 10 minutes of incubation at room temperature. The absorption was measured at 450 nm on a plate reader. Binding data were analyzed by non-linear regression analysis (sigmoidal dose-response, variable slope) to generate EC₅₀ values using GraphPad Prism® software. […] Double combinations of these mutants were made.

[4] = biological target: T1, human hepcidin (mature, 25 amino acids); test: ELISA, mono-biotinylated human hepcidin on Neutravidin plate, pH 5.5
Protocol: as §1

[5] = biological target: T1, human hepcidin (mature, 25 amino acids); test: ELISA, mono-biotinylated human hepcidin on Neutravidin plate, pH 7.4
Protocol: as §1

[6] = biological target: T1, human hepcidin (mature, 25 amino acids); test: ELISA, mono-biotinylated human hepcidin on Neutravidin plate, pH 6.0 against pH 7.4
Protocol: as §1

Binder	binding result [1]	Kd [2] [nM]	EC50 [3] [ng/mL]	EC50 [4] [ng/mL]	EC50 [5] [ng/mL]	fold increase in EC50 as the pH was lowered to 6.0 [6] [fold]
antibody 15E1 (wild type) (antibody, V domains shown, Human antibody) VH: QVQLVESGGGVVQPGRSLRLSCAASGFTFSSYGMHWVRQAPGKGLEWVAVIWYAESNKYYADSVKGRFTISRDNSKNTLYLQMNSLRAEDTAVYYCARAQEGIAPDAFDIWGQGTMVTVSS VL: SYELTQPPSVSVSPGQTATITCSGDKLGERYACWYQQRPGQSPVLVIYQDSKRPSGIPERFSGSNSGNTATLTISGTQAMDEADYFCQAWYSSTNVLFGGGTKLTVL	–	0.037	2.3	2.3	2.3	–
15E1 A107H (antibody, V domains shown, Histidine mutant of 15E1, transiently expressed in 293-6E cells; constant regions as in wild-type 15E1; also called A107H (heavy chain)) VH: QVQLVESGGGVVQPGRSLRLSCAASGFTFSSYGMHWVRQAPGKGLEWVAVIWYAESNKYYADSVKGRFTISRDNSKNTLYLQMNSLRAEDTAVYYCARAQEGIAPDHFDIWGQGTMVTVSS VL: SYELTQPPSVSVSPGQTATITCSGDKLGERYACWYQQRPGQSPVLVIYQDSKRPSGIPERFSGSNSGNTATLTISGTQAMDEADYFCQAWYSSTNVLFGGGTKLTVL	–	0.031	3.6	3.7	2	≥ 1.5
15E1 A99H (antibody, V domains shown, Histidine mutant of 15E1, transiently expressed in 293-6E cells; constant regions as in wild-type 15E1; also called A99H (heavy chain)) VH: QVQLVESGGGVVQPGRSLRLSCAASGFTFSSYGMHWVRQAPGKGLEWVAVIWYAESNKYYADSVKGRFTISRDNSKNTLYLQMNSLRAEDTAVYYCARHQEGIAPDAFDIWGQGTMVTVSS VL: SYELTQPPSVSVSPGQTATITCSGDKLGERYACWYQQRPGQSPVLVIYQDSKRPSGIPERFSGSNSGNTATLTISGTQAMDEADYFCQAWYSSTNVLFGGGTKLTVL	–	> 10	10.7	29.1	4.1	≥ 1.5

Other lines, results leading:

binding result [1]	Kd [2] [nM]	EC50 [3] [ng/mL]	EC50 [4] [ng/mL]	EC50 [5] [ng/mL]	fold increase in EC50 as the pH was lowered to 6.0 [6] [fold]	Binder
binds	–	–	–	–	–	murine antibody 2.7 (antibody, V domains shown, Murine monoclonal antibody; murine IgG1 was used as its isotypic control; also called Ab2.7; Ab 2.7) VH: QIQLVQSGPELKKPGETVKISCKASGYTFTTYGMSWVKQAPGKGLKWMGWINTYSGVPTYADDFKGRFAFSLETSASTAYLQINNLKNEDTATYFCGRDHYYGEVAYWGQGTLVTVSA VL: DIVLTQSPASLAVSLGQRATISCRASESVDSYGNSFMHWYQQKPGQPPKLLIYRASNLESGIPARFSGSGSRTDFTLTINPVEADDVATYYCHQSNEEYTFGGGTKLEIK
binds	–	–	–	–	–	antibody 1S3 (antibody, human IgG2, lambda, V domains shown, Human antibody) VH: QVQLVESGGGVVQPGRSLRLSCAASGFTFSSYGMHWVRQAPGKGLEWVAVIWYAESNKYYADSVKGRFTISRDNSKNTLYLQMNSLRAEDTAVYYCARAQEGIAPDAFDIWGQGTMVTVSS VL: YELTQPPSVSVSPGQTATITCSGDKLGERYASWYQQRPGQSPVLVIYQDIKRPSGIPERFSGSNSGNTATLTISGTQAMDEADYFCQAWYSSTNVLFGGGTKLTVLG
binds	–	–	–	–	–	antibody 26F11 (antibody, V domains shown, Human antibody) VH: QVQLVESGGGVVQPGRSLRLSCAASGFTFSNYGMHWVRQAPGKGLEWVAVIWYVGSNKYYADSVKGRFTISRDNSKNTLYLQMNSLRAEDTAVYYCARAQEGMAPDAFDIWGQGTMVTVSS VL: SYELTQPPSVSVSPGQTASITCSGDKMGERYACWYQQKPGQSPILVIYQDTKRPSGIPERFSGSNSGNTATLTISGTQAMDEADYYCQAWYSSTNVVFGGGTKLTVL
–	3	4	3.2	1.8	≥ 1.5	15E1 N57H (antibody, V domains shown, Histidine mutant of 15E1, transiently expressed in 293-6E cells; constant regions as in wild-type 15E1; also called N57H (heavy chain)) VH: QVQLVESGGGVVQPGRSLRLSCAASGFTFSSYGMHWVRQAPGKGLEWVAVIWYAESHKYYADSVKGRFTISRDNSKNTLYLQMNSLRAEDTAVYYCARAQEGIAPDAFDIWGQGTMVTVSS VL: SYELTQPPSVSVSPGQTATITCSGDKLGERYACWYQQRPGQSPVLVIYQDSKRPSGIPERFSGSNSGNTATLTISGTQAMDEADYFCQAWYSSTNVLFGGGTKLTVL
